Numbering of substitutions follows the chain as printed.
T1: CD20-AxP (human, UniProt P11836 1-297)
T1 construct: whole, on cells; Transiently expressed in HEK293F cells; also called AxP mutant; CD20 mutant (CD20-AxP)
T1 sequence (looked up): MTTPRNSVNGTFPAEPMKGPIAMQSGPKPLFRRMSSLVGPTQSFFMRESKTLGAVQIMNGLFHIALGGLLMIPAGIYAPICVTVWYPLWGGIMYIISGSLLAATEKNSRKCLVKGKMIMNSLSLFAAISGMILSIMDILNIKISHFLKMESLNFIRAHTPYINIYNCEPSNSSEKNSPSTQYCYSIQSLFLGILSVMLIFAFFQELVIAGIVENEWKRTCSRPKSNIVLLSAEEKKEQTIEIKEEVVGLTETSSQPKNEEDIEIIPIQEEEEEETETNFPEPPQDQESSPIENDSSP

T2: human CD20 (human, UniProt P11836 1-297)
T2 construct: whole, on cells; On Daudi and other human B cell lines, on human B cells in blood, or transiently expressed in HEK293F cells (construct pEE12.4CD20HS-GA); also called wild type CD20; WT CD20
T2 sequence (looked up): T1 sequence (looked up) with S170A, S172P

T3: CD20 KDD mutant (human, UniProt P11836 1-297)
T3 construct: whole, on cells; Transiently expressed in HEK293F cells; also called T159K/N163D/N166D
T3 sequence (looked up): T1 sequence (looked up) with T159K, N163D, N166D, S170A, S172P

B1: bsIgG1-huCLB-T3/4-FEALxCD20-11B8-FEAR (bispecific antibody)
heavy 1: EVQLVESGGGLVKPGGSLRLSCAASGFTFSSYGMFWVRQAPGKGLEWVATISRYSRYIYYPDSVKGRFTISRDNAKNSLYLQMNSLRAEDTAVYYCARRPLYGSSPDYWGQGTLVTVSSASTKGPSVFPLAPSSKSTSGGTAALGCLVKDYFPEPVTVSWNSGALTSGVHTFPAVLQSSGLYSLSSVVTVPSSSLGTQTYICNVNHKPSNTKVDKRVEPKSCDKTHTCPPCPAPEFEGGPSVFLFPPKPKDTLMISRTPEVTCVVVAVSHEDPEVKFNWYVDGVEVHNAKTKPREEQYNSTYRVVSVLTVLHQDWLNGKEYKCKVSNKALPAPIEKTISKAKGQPREPQVYTLPPSREEMTKNQVSLTCLVKGFYPSDIAVEWESNGQPENNYKTTPPVLDSDGSFLLYSKLTVDKSRWQQGNVFSCSVMHEALHNHYTQKSLSLSPGK
VL 1: EIVLTQSPATLSLSPGERATLSCSASSSVTYVHWYQQKPGQAPRLLIYDTSKLASGIPARFSGSGSGTDFTLTISSLEPEDFAVYYCFQGSGYPLTFGSGTKLEMR
heavy 2: EVQLVQSGGGLVHPGGSLRLSCTGSGFTFSYHAMHWVRQAPGKGLEWVSIIGTGGVTYYADSVKGRFTISRDNVKNSLYLQMNSLRAEDMAVYYCARDYYGAGSFYDGLYGMDVWGQGTTVTVSSASTKGPSVFPLAPSSKSTSGGTAALGCLVKDYFPEPVTVSWNSGALTSGVHTFPAVLQSSGLYSLSSVVTVPSSSLGTQTYICNVNHKPSNTKVDKRVEPKSCDKTHTCPPCPAPEFEGGPSVFLFPPKPKDTLMISRTPEVTCVVVAVSHEDPEVKFNWYVDGVEVHNAKTKPREEQYNSTYRVVSVLTVLHQDWLNGKEYKCKVSNKALPAPIEKTISKAKGQPREPQVYTLPPSREEMTKNQVSLTCLVKGFYPSDIAVEWESNGQPENNYKTTPPVLDSDGSFFLYSRLTVDKSRWQQGNVFSCSVMHEALHNHYTQKSLSLSPGK
VL 2: EIVLTQSPATLSLSPGERATLSCRASQSVSSYLAWYQQKPGQAPRLLIYDASNRATGIPARFSGSGSGTDFTLTISSLEPEDFAVYYCQQRSDWPLTFGGGTKVEIK
notes: also called huCLB-T3/4x11B8; bsIgG1-huCLB-3/4-FEALxCD20-11B8-FEAR
B2: bsIgG1-huCD3-H1L1-FEALxCD20-7D8-FEAR (bispecific antibody)
heavy 1: not shown
light: not shown
heavy 2: EVQLVESGGGLVQPDRSLRLSCAASGFTFHDYAMHWVRQAPGKGLEWVSTISWNSGTIGYADSVKGRFTISRDNAKNSLYLQMNSLRAEDTALYYCAKDIQYGNYYYGMDVWGQGTTVTVSSASTKGPSVFPLAPSSKSTSGGTAALGCLVKDYFPEPVTVSWNSGALTSGVHTFPAVLQSSGLYSLSSVVTVPSSSLGTQTYICNVNHKPSNTKVDKRVEPKSCDKTHTCPPCPAPEFEGGPSVFLFPPKPKDTLMISRTPEVTCVVVAVSHEDPEVKFNWYVDGVEVHNAKTKPREEQYNSTYRVVSVLTVLHQDWLNGKEYKCKVSNKALPAPIEKTISKAKGQPREPQVYTLPPSREEMTKNQVSLTCLVKGFYPSDIAVEWESNGQPENNYKTTPPVLDSDGSFFLYSRLTVDKSRWQQGNVFSCSVMHEALHNHYTQKSLSLSPGK
VL: B1 VL 2 with D93N, L96I, G100Q, K103R, V104L
notes: Made by 2-MEA-induced Fab-arm exchange; also called CD3xCD20; CD3x7D8
B3: bsIgG1-huCD3-H1L1-FEALxCD20-2F2-FEAR (bispecific antibody)
heavy 1: not shown
light: not shown
heavy 2: B2 heavy 2 with D15G, H30N, T57S, N77K
VL: B1 VL 2 with D93N, L96I, G100Q, K103R, V104L
notes: also called huCD3x2F2
B4: bsIgG1-huCD3-H1L1-FEALxCD20-11B8-FEAR (bispecific antibody)
heavy 1: not shown
light: not shown
heavy 2: B1 heavy 2
VL: B1 VL 2
notes: also called CD3x11B8; huCD3x11B8

Key:
[1] = molecular target: T1, CD20-AxP; assay: flow cytometry on HEK293F cells transiently expressing CD20-AxP (A170S/P172S); PE-conjugated goat anti-human IgG F(ab')2; MFI
Procedure: (§1) PCR was performed on a Tgradient Thermocycler 96 (Biometra) using a 35 cycle program of: +95° C. for 15 min, followed by 35 cycles of: +94° C. for 30 sec, anneal: 55° C. for 30 sec and extension: +72° C. for 2 min, followed by a final extension step at 72° C. for 10 min and subsequent storage at 4° C. The completed reactions were analyzed by agarose gel electrophoresis. See Table 11 for details of primer pairs used for colony PCR. DNA sequencing: Plasmid DNA samples were send to AGOWA (Berlin, Germany) for sequence analysis. Sequences were analyzed using the VectorNTI software package (Informax, Frederick, Md., USA).
(§2) Mutagenesis: The mutagenesis was performed, using the QuikChange® XL Site-Directed Mutagenesis kit (Cat 200517-5, Lot 1120630, Stratagene Europe) according to the manufacturer's instructions. Mutagenesis reactions were concentrated using ethanol precipitation and transformed into either oneshot DH5α-TIR competent E. coli cells or electroporated into ElectroTen-Blue® Electroporation-Competent Cells. Colonies were checked by colony PCR and restriction digestion prior to transfection. […] Anti-CD20 Antibody binding: HEK293F cells were taken up in staining buffer (PBS supplemented with 0.1% BSA and 0.02% NaN₃) and added to round bottom plates (1-3×10⁵/well in 100 μL). […] After washing twice in staining buffer, cells were incubated in 50 μL secondary antibody at 4° C. for 30 min. As a secondary antibody, R-Phycoerythrin (PE)-conjugated goat-anti-human IgG F(ab′)₂ was used, as described supra. Next, cells were washed once in staining buffer, re-suspended in 150 μL staining buffer and analyzed on a flow cytometer (FACSCanto-720, Becton Dickinson, San Diego, Calif., USA) and 10,000 events per sample were acquired at high flow rate. Binding curves were analyzed using non-linear regression (sigmoidal dose-response with variable slope) using GraphPad Prism V75.04 software (GraphPad Software, San Diego, Calif., USA).

[2] = molecular target: T4, human CD3 (human, UniProt P07766 22-207); assay: flow cytometry on Jurkat cells (CD3-positive, CD20-negative); PE-conjugated goat anti-human IgG F(ab')2; median FI (PE)
T4 construct: CD3 as part of the TCR complex on Jurkat cells or human T cells; also called human CD3ε (epsilon)
Procedure: In addition to the non-activating mutations, L234F, L235E, D265A, on both arms, the bispecific antibody contained an F405L mutation on one arm and a K409R mutation on the other arm.
Cells (1×10⁵ cells/well) were incubated in polystyrene 96-well round-bottom plates (Greiner bio-one, cat. no. 650101) with serial dilutions of antibodies (range 0.041 to 30 μg/mL in 3-fold dilution steps [A-E] and 0.00061 to 10 μg/mL in 4-fold dilution steps [F-I]) in 100 μL PBS/0.1% BSA/0.02% azide (from here designated as staining buffer) at 4° C. for 30 min.
After washing twice in staining buffer, cells were incubated in 50 μL secondary antibody at 4° C. for 30 min. As a secondary antibody, R-Phycoerythrin (PE)-conjugated goat-anti-human IgG F(ab′)₂ (cat. no. 109-116-098, Jackson ImmunoResearch Laboratories, Inc., West Grove, Pa.) diluted 1:200 in staining buffer, was used for all experiments. Next, cells were washed twice in staining buffer, re-suspended in 30 μL staining buffer and analyzed on an iQue screener (Intellicyt Corporation, USA) (for FIG. 1A-E) or re-suspended in 100 μL staining buffer and analyzed on a FACSCANTOII (BD Biosciences) (FIG. 1F-I). Binding curves were analyzed using non-linear regression (sigmoidal dose-response with variable slope) using GraphPad Prism V75.04 software (GraphPad Software, San Diego, Calif., USA).

[3] = molecular target: T2, human CD20; assay: flow cytometry on HEK293F cells transiently expressing wild type CD20; PE-conjugated goat anti-human IgG F(ab')2; MFI
Procedure: as §1, §2

[4] = molecular target: T1, CD20-AxP; assay: flow cytometry, HEK293F transfectants, MFI mutant/MFI wt at 10 µg/mL
Procedure: (§3) As a secondary antibody, R-Phycoerythrin (PE)-conjugated goat-anti-human IgG F(ab′)₂ was used, as described supra. Next, cells were washed once in staining buffer, re-suspended in 150 μL staining buffer and analyzed on a flow cytometer (FACSCanto-720, Becton Dickinson, San Diego, Calif., USA) and 10,000 events per sample were acquired at high flow rate. Binding curves were analyzed using non-linear regression (sigmoidal dose-response with variable slope) using GraphPad Prism V75.04 software (GraphPad Software, San Diego, Calif., USA).
(§4) Numbers indicate the percentage of binding to the CD20 mutants, relative to binding to wild type CD20, at 10 μg/mL. The percentage of binding was calculated by the following formula: (MFI binding to CD20 mutant)/(MFI binding CD20 wt) × 100%

[5] = molecular target: T3, CD20 KDD mutant; assay: as above
Procedure: as §3, §4

[6] = molecular target: T3, CD20 KDD mutant; assay: flow cytometry, HEK293F cells expressing CD20 KDD mutant
Procedure: as §1, §2

T4 sequence (P07766 22-207 limits assumed): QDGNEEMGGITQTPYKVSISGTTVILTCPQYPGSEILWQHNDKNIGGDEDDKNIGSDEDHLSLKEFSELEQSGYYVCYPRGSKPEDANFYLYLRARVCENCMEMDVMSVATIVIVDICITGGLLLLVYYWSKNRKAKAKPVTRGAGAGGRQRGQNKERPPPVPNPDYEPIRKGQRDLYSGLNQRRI

Row | Binder | EC50 (read off the curve) [1] [µg/mL] | EC50 (read off the curve) [2] [µg/mL] | EC50 (read off the curve) [3] [µg/mL] | % of wt CD20 binding [4] [%] | % of wt CD20 binding [5] [%] | binding result [6]
1 | B1 | ~0.3 | ~0.06 | ~0.1 | 118 | 54 | 
2 | B2 | ~0.2 |  | ~0.1 | 103 | 4 | no binding (tested: 0.0015-10 µg/mL)
3 | B3 | ~0.2 |  | ~0.1 | 98 | 4 | no binding (tested: 0.0015-10 µg/mL)
4 | B4 | ~0.2 |  | ~0.1 | 95 | 67 | 

— patent publication US20200199231A1 (Genmab, published 2020)
